Substrate in data set [1]: COc1cc(/C=C/C=O)ccc1O
The experiment in a line: purified protein. Format: biochemical, Triticum aestivum. Conditions: NADPH as co-substrate; GST fusion.

Substrate in data set [2]: COc1cc(/C=C/C=O)cc(OC)c1O
Put plainly: purified protein. Format: biochemical, Triticum aestivum. Conditions: NADPH as co-substrate; GST fusion.

B1: TaCAD12 (GST-TaCAD12) (Triticum aestivum) (protein)
chain: MAPTATAAEQSQQHTKKAVGLAALDASGHLSPLAITRRSTGDDDVVIKILYCGICHSDLHSIKNDWKNAKYPMIPGHEIAGEVTEVGKNVTKFKAGDRVGVGCMVNSCQSCESCDKGFENHCPGMIFTYNSVDRDGTRTHGGYSSMVVVHERFVVRFPDAMPLDKGAPLLCAGITVYSPMKYHGLNAPGMHLGVLGLGGLGHVAVKFGKAFGMKVTVISSSPGKKQEALERLGADAFVVSKDADEMKATMSTMDGIINTVSANVPMAPLFGLLKPNGKMIMVGLPEKPIEVPPFALVARNKTLAGSCIGGMRDTQEMLDLAAKHGVTADIEVIGAEYVNTAMERLAKADVRYRFVIDIANTLDKAAAATTE
notes: N-terminal GST fusion (pGEX-4T-1), expressed in E. coli BL21, purified; tag kept
The term Km denotes the concentration of substrate that gives half-maximal velocity. For the protein B1, the Km was found to be 28.91 ± 3.67 µM in “purified protein [1]” and 34.18 ± 5.56 µM in “purified protein [2]”.
